{"source": "paper PMC8225672", "key": {"[1]": {"molecular_target": "Human GHSR (growth hormone secretagogue receptor, ghrelin receptor), purified and inserted into lipid nanodiscs (human) (UniProt Q92847)", "sequence (Q92847 whole entry)": "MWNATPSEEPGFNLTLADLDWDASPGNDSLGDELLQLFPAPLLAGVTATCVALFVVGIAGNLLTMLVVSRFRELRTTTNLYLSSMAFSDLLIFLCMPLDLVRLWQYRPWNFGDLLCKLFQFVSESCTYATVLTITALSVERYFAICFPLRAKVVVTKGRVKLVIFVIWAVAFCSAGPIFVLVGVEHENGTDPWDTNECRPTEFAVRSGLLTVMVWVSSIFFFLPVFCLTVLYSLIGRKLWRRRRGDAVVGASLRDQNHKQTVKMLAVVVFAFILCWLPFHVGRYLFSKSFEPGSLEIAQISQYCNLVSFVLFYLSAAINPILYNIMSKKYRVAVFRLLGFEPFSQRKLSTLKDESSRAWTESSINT", "assay": "FRET or BRET; competition: time-resolved energy transfer between purified GHSR labeled with Lumi4-Tb at its N-terminus and dy647-labeled ghrelin (0.1 µM range), increasing competitor; GHSR in 17 nm nanodiscs (cNW30 scaffold); isolated receptor without G protein"}, "[2]": {"molecular_target": "Human GHSR (growth hormone secretagogue receptor, ghrelin receptor), purified and inserted into lipid nanodiscs (human) (UniProt Q92847)", "assay": "FRET or BRET; competition: time-resolved energy transfer between purified GHSR labeled with Lumi4-Tb at its N-terminus and dy647-labeled ghrelin (0.1 µM range), increasing competitor; GHSR in 12 nm nanodiscs (MSP1E3D1(-) scaffold); isolated receptor without G protein"}}}
{"substance": "LEAP2(1-14), the active N-terminal region of the natural inverse agonist LEAP2 (peptide)", "values": [{"measurement": "Ki", "setting": "[1]", "value": 4.6, "unit": "nM"}, {"measurement": "Ki", "setting": "[2]", "value": 6.7, "unit": "nM"}]}
